The text below walks through data of patent publication US20250011433A1 (GLIKNIK, published 2025).

The target of assay [1] is T1, FcγRI (UniProt P12314 16-288).
T1 construct: also called CD64
The assay can be described thus: BLI (Octet). As to the method:
(§1) Binding of complement-preferential stradomers or parent stradomer G045c to FcγRI, FcγRIIb, FcγRIIIa, FcγRIIa, or FcRn was assessed. RU values of dissociation were measured by biolayer interferometry using a ForteBio Octet instrument. His-tagged receptor proteins were bound to the sensor tip in 1× kinetic analysis buffer from ForteBio after which the on rate of the receptor/protein was measured by transferring the sensor tip to a 1× kinetics buffer containing the purified stradomer of choice. Off rate was measured by transferring the sensor tip to a 1× kinetics buffer, and RU value was calculated from the measured maximum binding using the ForteBio software. Biolayer interferometry detects the binding between a ligand immobilized on the biosensor tip surface and an analyte in solution. When binding occurs it produces an increase in optical thickness at the biosensor tip, which results in a wavelength shift (detected as a response unit of “RU”). The maximum binding level (RU max) is the maximum possible amount of sample binding at equilibrium that saturates the amount of ligand on the sensor surface. The RU 300 is the residual sample binding after 300 seconds of dissociation and is useful to characterize the rate of dissociation of the test article from the test ligand.
(§2) For each stradomer in Tables 5-9, the level of canonical FcγR binding, complement C1q binding, and CDC inhibition were determined according to the methods described in Example 1.

Assay [2] deals with T2, FcγRIIb (UniProt P31994 46-217, limits assumed).
T2 sequence (looked up): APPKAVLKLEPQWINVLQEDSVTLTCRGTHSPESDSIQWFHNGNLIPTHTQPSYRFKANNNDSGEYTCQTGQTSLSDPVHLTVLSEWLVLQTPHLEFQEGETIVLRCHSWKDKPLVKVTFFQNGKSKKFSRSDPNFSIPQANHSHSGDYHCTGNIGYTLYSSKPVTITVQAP
Nature of the assay: BLI (Octet). As to the method:
as §1, §2
On the technique in general: In BLI a coated tip is dipped into the sample, and binding shifts an interference pattern.

The target in assay [3] is T3, C1q (UniProt P02745 23-245; P02746 28-253; P02747 29-245).
T3 construct: bought C1q coated on ELISA plates at 1 µg/ml; also called complement C1q; complement factor C1q
The assay can be described thus: ELISA on coated C1q. As to the method: (§3) For C1q binding, 96 well plates were coated with C1q (Sigma Cat #: C1740 1 μg/ml) overnight in PBS. After coating, plates were washed 3 times with standard wash buffer (iX PBS+0.05% Tween 20) and blocked with blocking buffer (1% BSA+1× PBS+0.05% Tween 20) for 2 hours at RT. Following blocking, plates were incubated with compound diluted in blocking buffer 100 μL/well and washed 3 times with standard washing buffer. C1q-bound compound was detected by incubation with 1:5000 biotinylated mouse anti-human IgG1(Cat #555869, BD Biosciences) and Streptavidin-HRP (Cat #: 7100-05 Southern Biotech) (100 μl/well) for 1 hour at room temperature followed by washing 3 times with washing buffer, after which color was developed using the standard TMB method according to manufacturer's protocol for 15 minutes. Absorbance was read at 450 nm.
as §2
Background: ELISA stands for enzyme-linked immunosorbent assay.

Assay [4] deals with T1, FcγRI. The assay can be described thus: BLI (Octet). As to the method: as §1
The source holds these as a separate data set.

In assay [5] the target is T2, FcγRIIb. The assay can be described thus: BLI (Octet). As to the method: as §1
This is another data set of the same source.

Assay [6] concerns the target T3, C1q. Nature of the assay: ELISA on coated C1q. As to the method: as §3
This is another data set of the same source.

In another assay the target is FcγRIIIa (UniProt P08637 17-208). The assay can be described thus: BLI (Octet); legend: - indicates no binding. As to the method:
as §1

Like-named read-outs stand apart in the source and are kept apart here.

T3 sequence (P02745 23-245 limits assumed, chain 1 of 3): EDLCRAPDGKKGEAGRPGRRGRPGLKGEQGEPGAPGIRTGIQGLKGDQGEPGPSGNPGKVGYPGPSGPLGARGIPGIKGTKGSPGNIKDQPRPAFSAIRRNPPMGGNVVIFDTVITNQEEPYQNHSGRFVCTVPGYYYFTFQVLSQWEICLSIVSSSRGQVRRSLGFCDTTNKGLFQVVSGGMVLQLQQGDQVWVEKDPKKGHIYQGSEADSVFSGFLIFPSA
T3 sequence (P02746 28-253 limits assumed, chain 2 of 3): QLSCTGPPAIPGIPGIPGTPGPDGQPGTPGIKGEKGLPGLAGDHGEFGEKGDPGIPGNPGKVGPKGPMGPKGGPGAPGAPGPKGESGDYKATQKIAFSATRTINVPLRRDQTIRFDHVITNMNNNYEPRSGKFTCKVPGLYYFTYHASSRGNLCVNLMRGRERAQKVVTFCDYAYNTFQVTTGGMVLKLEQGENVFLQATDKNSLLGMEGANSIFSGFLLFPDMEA
T3 sequence (P02747 29-245 limits assumed, chain 3 of 3): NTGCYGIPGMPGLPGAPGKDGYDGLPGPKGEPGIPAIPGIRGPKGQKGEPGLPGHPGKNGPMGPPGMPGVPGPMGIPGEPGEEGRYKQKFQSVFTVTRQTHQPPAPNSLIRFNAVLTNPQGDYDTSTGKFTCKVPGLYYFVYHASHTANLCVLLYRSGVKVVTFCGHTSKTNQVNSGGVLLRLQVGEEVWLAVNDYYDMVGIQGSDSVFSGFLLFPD
FcγRIIIa, sequence (P08637 17-208 limits assumed): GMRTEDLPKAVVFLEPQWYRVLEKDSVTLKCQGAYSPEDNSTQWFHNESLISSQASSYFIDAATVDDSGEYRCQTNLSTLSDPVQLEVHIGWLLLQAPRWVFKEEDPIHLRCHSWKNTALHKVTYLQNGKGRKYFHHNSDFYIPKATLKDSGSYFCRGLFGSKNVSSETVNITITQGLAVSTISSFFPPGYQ
T1 sequence (P12314 16-288 limits assumed): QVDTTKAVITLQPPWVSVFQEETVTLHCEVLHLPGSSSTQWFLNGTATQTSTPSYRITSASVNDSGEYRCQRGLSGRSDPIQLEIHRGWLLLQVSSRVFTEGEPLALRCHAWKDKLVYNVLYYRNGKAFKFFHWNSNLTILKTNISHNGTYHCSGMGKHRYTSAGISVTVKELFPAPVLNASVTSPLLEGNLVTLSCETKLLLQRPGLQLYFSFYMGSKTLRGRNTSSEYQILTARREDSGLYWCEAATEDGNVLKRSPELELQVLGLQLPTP

B1: G1109 (Fc fusion)
chain: EPKSCDKTHTCPPCPAPPLLGGPSVFLFPPKPKDTLMISRTPEVTCVVVDVEFEDPEVKFNWYVDGVEVHNAKTKPREEQYNSTYRVVSVLTVLHQDWLNGKEYKCKVTNKALPAPIEKTISKAKGQPREPQVYTLPPSRDELTKNQVSLTCLVKGFYPSDIAVEWESNGQPENNYKTTPPVLDSDGSFFLYSKLTVDKSRWQQGNVFSCSVMHEALHNHYTQKSLSLSPGKERKCCVECPPCP
notes: G045c background, E233P/S267E/H268F/S324T; leader 1-20 cleaved
B1: the binding result in the assay with FcγRI [1], with FcγRIIb [2] and in the assay with C1q [3] was “binds” each time.

B2: G1119 (Fc fusion)
chain: EPKSCDKTHTCPPCPAPPLLRGPSVFLFPPKPKDTLMISRTPEVTCVVVDVKFEDPEVKFNWYVDGVEVHNAKTKPREEQYNSTYRVVSVLTVLHQDWLNGKEYKCKVTNKALPAPIEKTISKAKGQPREPQVYTLPPSRDELTKNQVSLTCLVKGFYPSDIAVEWESNGQPENNYKTTPPVLDSDGSFFLYSKLTVDKSRWQQGNVFSCSVMHEALHNHYTQKSLSLSPGKERKCCVECPPCP
notes: G045c background, E233P/G236R/S267K/H268F/S324T; leader 1-20 cleaved
For B2, the binding result in the assay with FcγRI [1] and with C1q [3] was “binds” throughout.

B3: G1100 (Fc fusion)
chain: EPKSCDKTHTCPPCPAPPLLGGPSVFLFPPKPKDTLMISRTPEVTCVVVDVRFEDPEVKFNWYVDGVEVHNAKTKPREEQYNSTYRVVSVLTVLHQDWLNGKEYKCKVTNKALPAPIEKTISKAKGQPREPQVYTLPPSRDELTKNQVSLTCLVKGFYPSDIAVEWESNGQPENNYKTTPPVLDSDGSFFLYSKLTVDKSRWQQGNVFSCSVMHEALHNHYTQKSLSLSPGKERKCCVECPPCP
notes: G045c background, E233P/S267R/H268F/S324T; leader 1-20 cleaved
In the case of B3, the binding result in the assay with FcγRI [1] and with C1q [3] was “binds” each time.

B4: G1025 (Fc fusion)
chain: EPKSCDKTHTCPPCPAPELLGGDSVFLFPPKPKDTLMISRTPEVTCVVVDVEFEDPEVKFNWYVDGVEVHNAKTKPREEQYNSTYRVVSVLTVLHQDWLNGKEYKCKVTNKALPAPIEKTISKAKGQPREPQVYTLPPSRDELTKNQVSLTCLVKGFYPSDIAVEWESNGQPENNYKTTPPVLDSDGSFFLYSKLTVDKSRWQQGNVFSCSVMHEALHNHYTQKSLSLSPGKERKCCVECPPCP
notes: G045c background, P238D/S267E/H268F/S324T; leader 1-20 cleaved
Turning to B4, the binding result in the assay with FcγRI [4] is “binds”; in the assay with FcγRIIb [5], “binds”; with C1q [6], “binds”; with FcγRIIIa it was “no binding”.

B5: G1123 (Fc fusion)
chain: EPKSCDKTHTCPPCPAPPLLQGPSVFLFPPKPKDTLMISRTPEVTCVVVDVRFEDPEVKFNWYVDGVEVHNAKTKPREEQYNSTYRVVSVLTVLHQDWLNGKEYKCKVTNKALPAPIEKTISKAKGQPREPQVYTLPPSRDELTKNQVSLTCLVKGFYPSDIAVEWESNGQPENNYKTTPPVLDSDGSFFLYSKLTVDKSRWQQGNVFSCSVMHEALHNHYTQKSLSLSPGKERKCCVECPPCP
notes: G045c background, E233P/G236Q/S267R/H268F/S324T; leader 1-20 cleaved
As to B5, the binding result with FcγRI [1] and in the assay with C1q [3] was “binds” in each case.

B6: G1046 (Fc fusion)
chain: EPKSCDKTHTCPPCPAPELLGGDSVFLFPPKPKDTLMISRTPEVTCVVVWVEFEDPEVKFNWYVDGVEVHNAKTKPREEQYNSTYRVVSVLTVLHQDWLNGKEYKCKVTNKALPAPIEKTISKAKGQPREPQVYTLPPSREEMTKNQVSLTCLVKGFYPSDIAVEWESNGQPENNYKTTPPVLDSDGSFFLYSKLTVDKSRWQQGNVFSCSVMHEALHNHYTQKSLSLSPGKERKCCVECPPCP
notes: G045c background, P238D/D265W/S267E/H268F/S324T; leader 1-20 cleaved
Regarding B6, the binding result in the assay with FcγRI [4] is listed as “binds”; with C1q [6] it was “binds”; with FcγRIIIa it was “no binding”.

B7: G1132 (Fc fusion)
chain: EPKSCDKTHTCPPCPAPELLGGPSVFLFPPKPKDTLMISRTPEVTCVVVDVRFEDPEVKFNWYVDGVEVHNAKTKPREEQYASTYRVVSVLTVLHQDWLNGKEYKCKVTNKALPAPIEKTISKAKGQPREPQVYTLPPSRDELTKNQVSLTCLVKGFYPSDIAVEWESNGQPENNYKTTPPVLDSDGSFFLYSKLTVDKSRWQQGNVFSCSVMHEALHNHYTQKSLSLSPGKERKCCVECPPCP
notes: G045c background, S267R/H268F/S324T/N297A; leader 1-20 cleaved
As for B7, the binding result with FcγRI [1] and with C1q [3] was “binds” each time.

B8: G1116 (Fc fusion)
chain: EPKSCDKTHTCPPCPAPPLLHGPSVFLFPPKPKDTLMISRTPEVTCVVVDVKFEDPEVKFNWYVDGVEVHNAKTKPREEQYNSTYRVVSVLTVLHQDWLNGKEYKCKVTNKALPAPIEKTISKAKGQPREPQVYTLPPSRDELTKNQVSLTCLVKGFYPSDIAVEWESNGQPENNYKTTPPVLDSDGSFFLYSKLTVDKSRWQQGNVFSCSVMHEALHNHYTQKSLSLSPGKERKCCVECPPCP
notes: G045c background, E233P/G236H/S267K/H268F/S324T; leader 1-20 cleaved
Regarding B8, the binding result with FcγRI [1] and with C1q [3] was “binds” each time.

B9: G1006 (Fc fusion)
chain: EPKSCDKTHTCPPCPAPELLGGPSVFLFPPKPKDTLMISRTPEVTCVVVAVEFEDPEVKFNWYVDGVEVHNAKTKPREEQYNSTYRVVSVLTVLHQDWLNGKEYKCKVTNKALPAPIEKTISKAKGQPREPQVYTLPPSRDELTKNQVSLTCLVKGFYPSDIAVEWESNGQPENNYKTTPPVLDSDGSFFLYSKLTVDKSRWQQGNVFSCSVMHEALHNHYTQKSLSLSPGKERKCCVECPPCP
notes: G045c background, D265A/S267E/H268F/S324T; leader 1-20 cleaved
For the molecule B9, the binding result with FcγRI [4] is listed as “binds”; in the assay with FcγRIIb [5] it was “binds”; with C1q [6], “binds”; with FcγRIIIa, “no binding”.

B10: G1112 (Fc fusion)
chain: EPKSCDKTHTCPPCPAPPLLRGPSVFLFPPKPKDTLMISRTPEVTCVVVDVRFEDPEVKFNWYVDGVEVHNAKTKPREEQYNSTYRVVSVLTVLHQDWLNGKEYKCKVTNKALPAPIEKTISKAKGQPREPQVYTLPPSRDELTKNQVSLTCLVKGFYPSDIAVEWESNGQPENNYKTTPPVLDSDGSFFLYSKLTVDKSRWQQGNVFSCSVMHEALHNHYTQKSLSLSPGKERKCCVECPPCP
notes: G045c background, E233P/G236R/S267R/H268F/S324T; leader 1-20 cleaved
Regarding B10, the binding result in the assay with FcγRI [1] and in the assay with C1q [3] was “binds” each time.

B11: G1096 (Fc fusion)
chain: EPKSCDKTHTCPPCPAPELLGGPSVFLFPPKPKDTLMISRTPEVTCVVVDVRFEDPEVKFNWYVDGVEVHNAKTKPREEQYNSAYRVVSVLTVLHQDWLNGKEYKCKVTNKALPAPIEKTISKAKGQPREPQVYTLPPSRDELTKNQVSLTCLVKGFYPSDIAVEWESNGQPENNYKTTPPVLDSDGSFFLYSKLTVDKSRWQQGNVFSCSVMHEALHNHYTQKSLSLSPGKERKCCVECPPCP
notes: G045c background, S267R/H268F/S324T/T299A; leader 1-20 cleaved
B11: the binding result with FcγRI [1] and in the assay with C1q [3] was “binds” throughout.

B12: G1071d2 (Fc fusion)
chain: EPKSCDKTHTCPPCPAPELLGGPSVFLFPPKPKDTLMISRTPEVTCVVVDVSFEDPEVKFNWYVDGVEVHNAKTKPREEQYNSAYRVVSVLTVLHQDWLNGKEYKCKVTNKALPAPIEKTISKAKGQPREPQVYTLPPSRDELTKNQVSLTCLVKGFYPSDIAVEWESNGQPENNYKTTPPVLDSDGSFFLYSKLTVDKSRWQQGNVFSCSVMHEALHNHYTQKSLSLSPGKERKCCVECPPCP
notes: G045c background, H268F/S324T/T299A; leader 1-20 cleaved
B12: the binding result with FcγRI [1], with FcγRIIb [2] and with C1q [3] was “binds” throughout.

B13: G1027 (Fc fusion)
chain: EPKSCDKTHTCPPCPAPELLGGDSVFLFPPKPKDTLMISRTPEVTCVVVDVEFEDPEVKFNWYVDGVEVHNAKTKPREEQYASTYRVVSVLTVLHQDWLNGKEYKCKVTNKALPAPIEKTISKAKGQPREPQVYTLPPSRDELTKNQVSLTCLVKGFYPSDIAVEWESNGQPENNYKTTPPVLDSDGSFFLYSKLTVDKSRWQQGNVFSCSVMHEALHNHYTQKSLSLSPGKERKCCVECPPCP
notes: G045c background, P238D/S267E/H268F/N297A/S324T; leader 1-20 cleaved
Consider B13, for which the binding result in the assay with FcγRI [4] is on record as “binds”; in the assay with FcγRIIb [5] it was “binds”; with C1q [6], “binds”; with FcγRIIIa, “no binding”.
